{"source": "patent US20240335558A1", "about": "“ISOLATED POLYPEPTIDE AND USE THEREOF” (GLYCO-THERAPY BIOTECHNOLOGY CO., LTD., priority 2021, published 2024)", "molecules": {"B1": {"name": "HpFT-4HR: reported α-1,3 fucosyltransferase (Wu P. et al.): catalytically active domain, four heptapeptide repeat sequences, C-terminus His tag (protein)", "chain": "MFQPLLDAFIESASIEKMVSKSPPPPLKIAVANWWGDEEIKEFKKSVLYFILSQRYAITLHQNPNESSDLVFSNPLGAARKILSYQNTKRVFYTGENESPNFNLFDYAIGFDELDFNDRYLRMPLYYAHLHYEAELVNDTTAPYKLKDNSLYALKKPSHHFKENHPNLCAVVNDESDLLKRGFASFVASNANAPMRNAFYDALNSIEPVTGGGSVRNTLGYKVGNKSEFLSQYKFNLCFENSQGYGYVTEKILDAYFSHTIPIYWGSPSVAKDFNPKSFVNVHDFNNFDEAIDYIKYLHTHPNAYLDMLYENPLNTLDGKAYFYQDLSFKKILDFFKTILENDTIYHNNPFIFYRDLHEPLISIDDLRVNYDDLRVNYDDLRVNYDDLRVNYLEHHHHHH", "modifications": "Catalytically active domain of Helicobacter pylori Alpha-(1,3)-fucosyltransferase (GenBank No.AAD07710.1) with 4 heptapeptide repeats and a C-terminal His tag"}}, "type_in_all_cases": "biochemical", "key": {"[1]": {"system": "Trastuzumab-G2F", "experiment": "HpFT-2HR and HpFT-4HR transferring GDP-FAmP4Biotin or GDP-FAzP4Biotin to Trastuzumab-G2F", "settings": "donor 1 mM, enzyme 0.5 mg/mL, 30° C., 6 h; FIG. 6(A)", "description": "(§1) To 40 mM Tris-HCl (pH 7.5) buffer were added Trastuzumab-G2F (2 mg/mL final), GDP-FAmP4Biotin (1 mM final), MgCl2 (20 mM final), and different HpFT enzymes (HpFT-4HR, HpFT-4HR(M4), HpFT-4HR(M7), HpFT-6HR, HpFT-3HR, HpFT-2HR, HpFT-1HR, or HpFT-0HR) (0.5 mg/mL final) in sequence, and the resulting mixed solution was allowed to react at 30° C. for 3 h. Three parallels were set up for each group. After the reaction time point was reached, to the reaction solution was added 10 mM LacNAc (N-acetyl-D-lactosamine), and the reaction was terminated by a desalting column (Zeba™ Spin Desalting Columns/2 ml/40K, Thermo Fisher Scientific), and finally mass spectrometry was carried out and % of conversion was calculated. % of conversion=(MAR0 peak intensity*0+MAR1peak intensity*1+MAR2 peak intensity*2+MAR3 peak intensity*3+MAR4 peak intensity*4)/4* (MAR0 peak intensity+MAR1 peak intensity+MAR2 peak intensity+MAR3 peak intensity+MAR4 peak intensity)*100%.\n(§2) To 40 mM Tris-HCl (pH 7.5) buffer were added Trastuzumab-G2F (2 mg/mL final), GDP-FAmP4Biotin or GDP-FAzP4Biotin (1 mM final), MgCl2 (20 mM final), and HpFT-2HR or HpFT-4HR (0.5 mg/mL final) in sequence, and the resulting mixed solution was allowed to react at 30° C. for 6 h. Three parallels were set up for each group. After the reaction time point was reached, to the reaction solution was added 10 mM LacNAc, and the reaction was terminated by a desalting column (Zeba™ Spin Desalting Columns/2 ml/40K, Thermo Fisher Scientific), and finally mass spectrometry was carried out and % of conversion was calculated. % of conversion was calculated according to Example 17."}, "[2]": {"system": "Trastuzumab-(GalNAzβ1,4)GlcNAc", "experiment": "HpFT-2HR and HpFT-4HR transferring GDP-FAmP4Biotin or GDP-FAzP4Biotin to Trastuzumab-(GalNAzβ1,4)GlcNAc", "settings": "donor 1 mM, enzyme 0.5 mg/mL, 6 h; FIG. 6(B)", "description": "as §1, with “added Trastuzumab-(Fucα1,6)(Galβ1,4)GlcNAc” for “added Trastuzumab-G2F”, “HpFT-2HR, HpFT-1HR” for “HpFT-2HR, HpFT-1HR,”, “for 1” for “for 3”, “mM LacNA,” for “mM LacNAc (N-acetyl-D-lactosamine),”, “peak intensity*2)/2*” for “peak intensity*2+MAR3 peak intensity*3+MAR4 peak intensity*4)/4*”, “peak” for “peak intensity+MAR3 peak intensity+MAR4 peak”\nas §2, with “Trastuzumab-(GalNAzβ1,4)GlcNAc” for “Trastuzumab-G2F”, “30 t” for “30° C.”, “18.” for “17.”"}, "[3]": {"system": "Trastuzumab-G2F", "experiment": "HpFT-4HR and HFT6 transferring GDP-FAmP4Biotin to Trastuzumab-G2F", "settings": "donor GDP-FAmP4Biotin 1 mM, enzyme 0.5 mg/mL, 30° C., 6 h; FIG. 5A"}, "[4]": {"system": "Trastuzumab-(GalNAzβ1,4)GlcNAc", "experiment": "HpFT-4HR and HFT6 transferring GDP-FAmP4Biotin to Trastuzumab-(GalNAzβ1,4)GlcNAc", "settings": "donor GDP-FAmP4Biotin 1 mM, enzyme 0.5 mg/mL, 30° C., 6 h; FIG. 5B", "protocol": "Three parallels were set up for each group. After the reaction time point was reached, to the reaction solution was added 10 mM LacNA, and the reaction was terminated by a desalting column (Zeba™ Spin Desalting Columns/2 ml/40K, Thermo Fisher Scientific), and finally mass spectrometry was carried out and % of conversion was calculated. % of conversion=(MAR0 peak intensity*0+MAR1peak intensity*1+MAR2 peak intensity*2)/2* (MAR0 peak intensity+MAR1 peak intensity+MAR2 peak intensity)*100%.\nThree parallels were set up for each group. After the reaction time point was reached, to the reaction solution was added 10 mM LacNAc, and the reaction was terminated by a desalting column (Zeba™ Spin Desalting Columns/2 ml/40K, Thermo Fisher Scientific), and finally mass spectrometry was carried out and % of conversion was calculated. […] For Trastuzumab-(GalNAzβ1,4)GlcNAc, % of conversion was calculated according to Example 18."}}}
{"molecule": "B1", "values": [{"measurement": "activity in catalyzing the transfer of GDP-FAmP4Biotin relative to transfer of GDP-FAzP4Biotin", "setting": "[1]", "result": "significantly higher"}, {"measurement": "activity in catalyzing the transfer of GDP-FAmP4Biotin relative to transfer of GDP-FAzP4Biotin", "setting": "[2]", "result": "significantly higher"}, {"measurement": "catalytic activity (% of conversion), HpFT-4HR versus HFT6", "setting": "[3]", "result": "much higher than that of human-derived fucosyltransferase HFT6"}, {"measurement": "catalytic activity (% of conversion), HpFT-4HR versus HFT6", "setting": "[4]", "result": "much higher than that of human-derived fucosyltransferase HFT6"}]}
